Results taken from US20230133775A1.

Molecular target: Leucine-rich repeat-containing protein 15 (LRRC15) on LRRC15-expressing cells (UniProt Q8TF66)
Assay: cell-based or functional assay

Leucine-rich repeat-containing protein 15 (LRRC15) on LRRC15-expressing cells, sequence (Q8TF66 22-581 limits assumed): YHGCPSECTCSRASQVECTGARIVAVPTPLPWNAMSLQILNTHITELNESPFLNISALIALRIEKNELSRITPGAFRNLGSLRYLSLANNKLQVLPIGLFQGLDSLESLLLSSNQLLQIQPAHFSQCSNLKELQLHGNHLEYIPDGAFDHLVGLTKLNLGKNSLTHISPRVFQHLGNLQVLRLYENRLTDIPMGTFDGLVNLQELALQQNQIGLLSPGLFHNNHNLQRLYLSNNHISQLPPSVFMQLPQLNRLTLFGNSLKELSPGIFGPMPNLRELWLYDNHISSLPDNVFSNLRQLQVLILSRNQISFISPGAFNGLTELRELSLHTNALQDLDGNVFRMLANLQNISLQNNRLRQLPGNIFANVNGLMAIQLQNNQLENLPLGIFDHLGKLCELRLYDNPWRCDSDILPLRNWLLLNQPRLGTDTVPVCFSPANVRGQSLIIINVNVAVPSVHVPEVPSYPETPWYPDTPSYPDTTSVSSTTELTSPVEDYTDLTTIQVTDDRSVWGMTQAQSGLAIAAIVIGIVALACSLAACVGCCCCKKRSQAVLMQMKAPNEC

non-specific low fucose isotype control (IgG1-LF) (antibody)
target cell death in the ADCC assay with NK92-CD16 effector cells: < 30%
